Measurements: patent publication US20240270846A1 (published 2024)
Where a chain is given by its changes, count along the chain named. Names may count otherwise.

B1: GLS3000 N28L one-arm antibody (H chain CE115HA000) (antibody, human IgG1, kappa, L234A L235A, N297A, name in Kabat numbering)
heavy: QVQLVESGGGVVQPGRSLRLSCAASGFTFSNAWMHWVRQAPGKGLEWVAQIKAKSNNYATYYAESVKGRFTISRDDSKNSLYLQMNSLKTEDTAVYYCRYVHYGAYYGVDAWGQGTTVTVSSASTKGPSVFPLAPSSKSTSGGTAALGCLVKDYFPEPVTVSWNSGALTSGVHTFPAVLQSSGLYSLSSVVTVPSSSLGTQTYICNVNHKPSNTKVDKKVEPKSCDKTHTCPPCPAPEAAGGPSVFLFPPKPKDTLMISRTPEVTCVVVDVSHEDPEVKFNWYVDGVEVHNAKTKPREEQYASTYRVVSVLTVLHQDWLNGKEYKCKVSNKALPAPIEKTISKAKGQPREPQVYTLPPSRCELTKNQVSLSCAVKGFYPSDIAVEWESNGQPENNYKTTPPVLDSDGSFFLVSKLTVDKSRWQQGNVFSCSVMHEALHNHYTQKSLSLSPDYKDDDDK
chain: EPKSSDKTHTCPPCPAPELLGGPSVFLFPPKPKDTLMISRTPEVTCVVVDVSHEDPEVKFNWYVDGVEVHNAKTKPREEQYNSTYRVVSVLTVLHQDWLNGKEYKCKVSNKALPAPIEKTISKAKGQPREPQVCTLPPSRDELTKNQVSLWCLVKGFYPSDIAVEWESNGQPENNYKTTPPVLDSDGSFFLYSKLTVDKSRWQQGNVFSCSVMHEALHNRYTQKSLSLSP
light: DIVMTQSPLSLPVTPGEPASISCRSSQSLVHSLRNTYLHWYQQKPGQAPRLLIYKVSNRFSGVPDRFSGSGSGTDFTLKISRVEAEDVGVYYCGQGTQVPYTFGQGTKLEIKRTVAAPSVFIFPPSDEQLKSGTASVVCLLNNFYPREAKVQWKVDNALQSGNSQESVTEQDSKDSTYSLSSTLTLSKADYEKHKVYACEVTHQGLSSPVTKSFNRGEC
notes: one-arm antibody
B2: GLS3000 N30G one-arm antibody (H chain CE115HA000) (antibody, human IgG1, kappa, L234A L235A, N297A, name in Kabat numbering)
heavy: B1 heavy
chain: B1 chain
light: B1 light with L33N, N35G
notes: one-arm antibody
B3: GLS3000 N28P one-arm antibody (H chain CE115HA000) (antibody, human IgG1, kappa, L234A L235A, N297A, name in Kabat numbering)
heavy: B1 heavy
chain: B1 chain
light: B1 light with L33P
notes: one-arm antibody
B4: GLS3000 N28S one-arm antibody (H chain CE115HA000) (antibody, human IgG1, kappa, L234A L235A, N297A, name in Kabat numbering)
heavy: B1 heavy
chain: B1 chain
light: B1 light with L33S
notes: one-arm antibody
B5: GLS3000 N28V one-arm antibody (H chain CE115HA000) (antibody, human IgG1, kappa, L234A L235A, N297A, name in Kabat numbering)
heavy: B1 heavy
chain: B1 chain
light: B1 light with L33V
notes: one-arm antibody
B6: GLS3000 N30P one-arm antibody (H chain CE115HA000) (antibody, human IgG1, kappa, L234A L235A, N297A, name in Kabat numbering)
heavy: B1 heavy
chain: B1 chain
light: B1 light with L33N, N35P
notes: one-arm antibody
B7: GLS3000 N30A one-arm antibody (H chain CE115HA000) (antibody, human IgG1, kappa, L234A L235A, N297A, name in Kabat numbering)
heavy: B1 heavy
chain: B1 chain
light: B1 light with L33N, N35A
notes: one-arm antibody
B8: GLS3000 N30Q one-arm antibody (H chain CE115HA000) (antibody, human IgG1, kappa, L234A L235A, N297A, name in Kabat numbering)
heavy: B1 heavy
chain: B1 chain
light: B1 light with L33N, N35Q
notes: one-arm antibody
B9: GLS3000 N30I one-arm antibody (H chain CE115HA000) (antibody, human IgG1, kappa, L234A L235A, N297A, name in Kabat numbering)
heavy: B1 heavy
chain: B1 chain
light: B1 light with L33N, N35I
notes: one-arm antibody
B10: GLS3000 N30L one-arm antibody (H chain CE115HA000) (antibody, human IgG1, kappa, L234A L235A, N297A, name in Kabat numbering)
heavy: B1 heavy
chain: B1 chain
light: B1 light with L33N, N35L
notes: one-arm antibody
B11: GLS3000 N30F one-arm antibody (H chain CE115HA000) (antibody, human IgG1, kappa, L234A L235A, N297A, name in Kabat numbering)
heavy: B1 heavy
chain: B1 chain
light: B1 light with L33N, N35F
notes: one-arm antibody
B12: GLS3000 N30M one-arm antibody (H chain CE115HA000) (antibody, human IgG1, kappa, L234A L235A, N297A, name in Kabat numbering)
heavy: B1 heavy
chain: B1 chain
light: B1 light with L33N, N35M
notes: one-arm antibody
B13: GLS3000 N30D one-arm antibody (H chain CE115HA000) (antibody, human IgG1, kappa, L234A L235A, N297A, name in Kabat numbering)
heavy: B1 heavy
chain: B1 chain
light: B1 light with L33N, N35D
notes: one-arm antibody
B14: GLS3000 N28M one-arm antibody (H chain CE115HA000) (antibody, human IgG1, kappa, L234A L235A, N297A, name in Kabat numbering)
heavy: B1 heavy
chain: B1 chain
light: B1 light with L33M
notes: one-arm antibody
B15: GLS3000 N28Q one-arm antibody (H chain CE115HA000) (antibody, human IgG1, kappa, L234A L235A, N297A, name in Kabat numbering)
heavy: B1 heavy
chain: B1 chain
light: B1 light with L33Q
notes: one-arm antibody
B16: GLS3000 N30K one-arm antibody (H chain CE115HA000) (antibody, human IgG1, kappa, L234A L235A, N297A, name in Kabat numbering)
heavy: B1 heavy
chain: B1 chain
light: B1 light with L33N, N35K
notes: one-arm antibody
B17: GLS3000 N30H one-arm antibody (H chain CE115HA000) (antibody, human IgG1, kappa, L234A L235A, N297A, name in Kabat numbering)
heavy: B1 heavy
chain: B1 chain
light: B1 light with L33N, N35H
notes: one-arm antibody
B18: GLS3000 N28T one-arm antibody (H chain CE115HA000) (antibody, human IgG1, kappa, L234A L235A, N297A, name in Kabat numbering)
heavy: B1 heavy
chain: B1 chain
light: B1 light with L33T
notes: one-arm antibody
B19: GLS3000 N30E one-arm antibody (H chain CE115HA000) (antibody, human IgG1, kappa, L234A L235A, N297A, name in Kabat numbering)
heavy: B1 heavy
chain: B1 chain
light: B1 light with L33N, N35E
notes: one-arm antibody
B20: GLS3000 N28W one-arm antibody (H chain CE115HA000) (antibody, human IgG1, kappa, L234A L235A, N297A, name in Kabat numbering)
heavy: B1 heavy
chain: B1 chain
light: B1 light with L33W
notes: one-arm antibody
B21: GLS3000 N28Y one-arm antibody (H chain CE115HA000) (antibody, human IgG1, kappa, L234A L235A, N297A, name in Kabat numbering)
heavy: B1 heavy
chain: B1 chain
light: B1 light with L33Y
notes: one-arm antibody

Molecular target: T1, CD3 epsilon homodimer protein (UniProt P07766 23-126)
T1 construct: also called CD3 (CD3 epsilon)
Experiment: SPR, CD3e homodimer on chip;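 further: surface plasmon resonance at 25 degrees C, antibodies flowed as analyte over CD3 epsilon homodimer amine-coupled to a CM4 chip, running buffer HBS-EP+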
Description: An appropriate amount of CD3 epsilon homodimer protein was immobilized onto Sensor chip CM4 (GE Healthcare Japan Corp.) by the amine coupling method. Then, the antibody having an appropriate concentration was injected thereto as an analyte and allowed to interact with the CD3 epsilon homodimer protein on the sensor chip. Then, the sensor chip was regenerated by the injection of 10 mmol/L glycine-HCl (pH 1.5). The assay was conducted at 25 degrees C., and HBS-EP+(GE Healthcare Japan Corp.) was used as a running buffer. […] Each parameter was calculated using Biacore T200 Evaluation Software (GE Healthcare Japan Corp.).
Specifically, when the amount of the GLS3000-containing antibody bound was defined as X and the amount of the L chain one-amino acid altered form bound was defined as Y, a value of Z (ratio of amounts bound)=Y/X was used.

T1 sequence (P07766 23-126): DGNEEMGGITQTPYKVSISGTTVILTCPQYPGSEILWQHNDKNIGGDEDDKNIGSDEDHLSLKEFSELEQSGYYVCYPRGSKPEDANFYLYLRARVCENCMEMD

Row | Binder | ratio of amounts bound (altered form / unaltered GLS3000 antibody)
1 | B1 | 0.39
2 | B2 | 0.47
3 | B3 | 0.36
4 | B4 | 0.32
5 | B5 | 0.36
6 | B6 | 0.31
7 | B7 | 0.5
8 | B8 | 0.87
9 | B9 | 0.61
10 | B10 | 0.7
11 | B11 | 1.1
12 | B12 | 0.8
13 | B13 | 0.34
14 | B14 | 0.39
15 | B15 | 0.37
16 | B16 | 1.65
17 | B17 | 0.98
18 | B18 | 0.45
19 | B19 | 0.44
20 | B20 | 0.41
21 | B21 | 0.26
